Drawing on patent EP4556028A1, this text covers IC50, inhibition of SARS-CoV-2 HH01 replication on Calu-3 cells and IC90, inhibition of SARS-CoV-2 HH01 replication on Calu-3 cells for three substances.

The test concerns the target spike protein of SARS-CoV-2 clinical isolate HH01 (Wuhan-like), on live virus (SARS-CoV-2 (Wuhan-like HH01)) (UniProt P0DTC2). In words: cell-based or functional assay.

The substance “recombinant minibinder LCB1 with N- and C-terminal Ser/Gly extensions and C-terminal Cys (designed binder)” displayed an IC50, inhibition of SARS-CoV-2 HH01 replication on Calu-3 cells of 0.01 to 0.1 µM.

As to “virus-binding conjugate P: PLGA-PEG-Mal / PLGA (1:1) particle loaded with LCB1”, the IC50, inhibition of SARS-CoV-2 HH01 replication on Calu-3 cells was 4.86 µg/mL and the IC90, inhibition of SARS-CoV-2 HH01 replication on Calu-3 cells is 4.99 µg/mL.

In the case of “virus-binding conjugate S: PLGA-only particle incubated with LCB1 (control, adsorbed minibinder)”, the IC50, inhibition of SARS-CoV-2 HH01 replication on Calu-3 cells was 1 to 10 µg/mL.
